Laboratory results published in patent US12466853B2, “Selective targeting of apoptosis proteins by structurally-stabilized and/or cysteine-reactive NOXA peptides” (priority 2017, dated 2025).
Numbering of substitutions follows the chain as printed. Entries after “also recorded” stand apart in the source; their conditions may differ.

Assays:
native BFL-1 = target: T1, native BFL-1 (Homo sapiens, UniProt Q16548); test: BFL-1 targeting in A375P lysates (streptavidin pulldown, BFL-1 western); assay type: binding; conditions: biotinylated SAHB, compared to acetylated construct
T1 construct: endogenous in cells; host or cells: A375P melanoma cells (A10); U937 AML cells (A12), lysates
T1 sequence (Q16548 1-175): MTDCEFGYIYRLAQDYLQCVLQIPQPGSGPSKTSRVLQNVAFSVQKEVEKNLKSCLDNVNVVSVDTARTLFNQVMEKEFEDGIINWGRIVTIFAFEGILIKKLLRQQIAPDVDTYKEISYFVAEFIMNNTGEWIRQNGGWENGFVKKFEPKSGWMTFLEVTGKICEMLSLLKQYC
Description: (§1) Cultured A375P and U937 cells were trypsinized or harvested, respectively, washed with PBS, and lysed by incubating with 1% CHAPS lysis buffer (1% CHAPS, 150 mM NaCl, 50 mM Tris pH 7.4, 100 μM DTT). The protein concentrations of the soluble fraction were measured using a BCA kit according to the manufacturer's instructions (Thermo Scientific). Lysate samples (1 mg) were incubated with vehicle or C-terminally biotinylated NOXA SAHBs (30 μM) overnight in 1% CHAPS lysis buffer at 4° C. Biotin capture was accomplished by incubating the mixture with high-capacity SA agarose (Thermo Scientific) for 2 hours at 4° C., followed by centrifugation and washing the pelleted beads three times with lysis buffer (1 mL). Bead-bound proteins were eluted by boiling in 10% SDS containing 10 mg/mL biotin for 10 minutes and then subjected to electrophoresis and western blotting using BFL-1 (Abcam, #125259) and MCL-1 (Rockland #600-401-394S) antibodies.

[1] = target: T2, BFL-1ΔC C4S/C19S/C55S / FITC-BID BH3 (Homo sapiens, UniProt Q16548, C19S/C4S/C55S); test: Competitive fluorescence polarization binding assay, BFL-1ΔC C4S/C19S/C55S
T2 construct: Recombinant anti-apoptotic BFL-1ΔC (aa 1-151) and its cysteine to serine mutants were cloned into PET17b; hexahistidine (N); made in house; host or cells: Escherichia coli LOBSTR BL21(DE3)
T2 sequence (Q16548 1-151 C4S/C19S/C55S): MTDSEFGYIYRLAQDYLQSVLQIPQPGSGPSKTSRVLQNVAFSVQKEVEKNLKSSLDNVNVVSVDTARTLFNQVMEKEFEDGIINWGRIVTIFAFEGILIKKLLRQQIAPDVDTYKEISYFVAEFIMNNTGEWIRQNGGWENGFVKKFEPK
Description: (§2) Fluorescence polarization (FP) assays were performed as previously described (Pitter et al., 2008 (supra)). Briefly, direct binding curves were first generated by FITC-BID BH3 (25 nM) with serial dilutions of anti-apoptotic protein, and FP was measured at 5 min on a SpectraMax M5 microplate reader (Molecular Devices). For competition assays, a serial dilution of acetylated or warhead-bearing NOXA SAHB was added to the indicated recombinant protein at ˜EC75 concentration, as determined by the direct binding assay. FITC-BID BH3 (25 nM) was then added and fluorescence polarization was measured at equilibrium. IC50 values were calculated by nonlinear regression analysis of competitive binding curves using PRISM software (GraphPad).

U937 cells = test: LDH release assay, U937 cells; assay type: cell-based, human; conditions: 30 min and 4 hr, listed as D-NA-NOXA SAHB-15 R31E
Description: After overnight incubation for A375P cells, or immediately upon plating for U937 cells, the cells were treated with the indicated concentrations of D-NA-NOXA SAHBs in DMEM or RPMI supplemented with 5% FBS for the indicated time period (30 min, 4 h). After plate centrifugation at 1,500 rpm (Thermo Scientific Sorvall Four-Place Swinging Bucket Rotor [75006445]; 478×g) for 5 min at 4° C., LDH release was quantified by transferring 100 μL of cell-culture medium to a clear plate (Corning), incubating with 100 μL of LDH reagent (Roche) for 30 min while shaking, and then measuring absorbance at 490 nm on a microplate reader (Spectramax M5, Molecular Devices).

MCL-1 = target: T3, MCL-1 (Homo sapiens, UniProt Q07820); test: MCL-1 engagement in A375P lysates (streptavidin pulldown, MCL-1 western); assay type: binding; conditions: biotinylated SAHB
T3 construct: endogenous protein in lysates from the A375P melanoma cell line; endogenous in cells; host or cells: A375P melanoma cells (lysate)
Description: as §1

[2] = target: T4, BFL-1ΔC C4S/C19S / FITC-BID BH3 (Homo sapiens, UniProt Q16548, C19S/C4S); test: Competitive fluorescence polarization binding assay, BFL-1ΔC C4S/C19S; conditions: fluorescence polarization competition
T4 construct: Recombinant anti-apoptotic BFL-1ΔC (aa 1-151) and its cysteine to serine mutants were cloned into PET17b; made in house; host or cells: Escherichia coli LOBSTR BL21(DE3)
T4 sequence (Q16548 1-151 C4S/C19S): T2 sequence (Q16548 1-151 C4S/C19S/C55S) with S55C
Description: as §2

[3] = target: T5, HA-BFL-1ΔC C4S/C19S / tBID (Homo sapiens, UniProt Q16548, C19S/C4S); test: BFL-1/BH3 complex disruption: competition with tBID in 293T lysates; assay type: binding; conditions: anti-HA immunoprecipitation
T5 construct: Recombinant anti-apoptotic BFL-1ΔC (aa 1-151) and its cysteine to serine mutants were cloned into PET17b; expressed in transfected cells; host or cells: 293T (lysate)
T5 sequence (Q16548 1-151 C4S/C19S): T2 sequence (Q16548 1-151 C4S/C19S/C55S) with S55C
Description: To evaluate the capacity of biotinylated SAHBs to compete with tBID for interactions with BFL-1 and MCL-1, 293T cells were transfected with either HA-BFL-1ΔC C4S/C19S or FLAG-MCL-1 in the p3XFLAG-CMV-10 vector (Sigma) as above. After 24 hr, cells were trypsinized, washed with PBS, lysed in 1% CHAPS buffer, and the supernatant collected for protein concentration determination by BCA kit. Lysate samples (0.5 mg) were incubated with 0.25 μM recombinant tBID (R&D Systems) and 5 μM biotinylated NOXA SAHBs for 6 h at RT. The mixtures were then subjected to HA or FLAG immunoprecipitation, followed by western analysis using 1:1000 dilutions of HA (Sigma Aldrich, #12CA5), FLAG (Sigma-Aldrich, F7425), and BID (Santa Cruz sc-11423) antibodies.

BCL-XLΔC / FITC-BID BH3 = target: T6, BCL-XLΔC / FITC-BID BH3 (Homo sapiens, UniProt Q07817); test: Competitive fluorescence polarization binding assay, BCL-XLΔC
T6 construct: Recombinant anti-apoptotic BCL-XLΔC (aa 1-212) and MCL-1ΔNΔC (aa 172-329); GST (N, cleaved yes); made in house; host or cells: Escherichia coli BL21(DE3)
Description: as §2

T6 sequence (Q07817 1-212, stated change not applied): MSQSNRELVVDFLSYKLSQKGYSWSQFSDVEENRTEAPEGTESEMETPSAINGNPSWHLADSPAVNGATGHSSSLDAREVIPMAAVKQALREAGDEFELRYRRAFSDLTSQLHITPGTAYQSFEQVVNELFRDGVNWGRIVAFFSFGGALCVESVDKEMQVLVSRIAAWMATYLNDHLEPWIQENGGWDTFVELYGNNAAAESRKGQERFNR

Substance: JAT8LREFGDXLNFRQ [D-NA-NOXA-15 R31E]
- targeting of native BFL-1 (native BFL-1): enhanced targeting of native BFL-1
- competition for FITC-BID BH3 binding to BFL-1ΔC C4S/C19S/C55S [1]: neither D-NA- nor Ac-NOXA15 R31E competes
- LDH release (non-specific cell membrane-lytic activity) (U937 cells): no LDH release; also recorded: no non-specific cell membrane-lytic activity
- MCL-1 engagement (MCL-1): approximately equivalent binding to MCL-1
- disruption of BFL-1ΔC C4S/C19S / FITC-BID BH3 interaction [2]: displays the ability to disrupt the interaction
- competition with tBID for HA-BFL-1ΔC C4S/C19S interaction [3]: effectively competes with tBID
- competition for FITC-BID BH3 binding to BCL-XLΔC (BCL-XLΔC / FITC-BID BH3): neither Ac- nor D-NA-NOXA-15 R31E is able to compete
